{
  "source": "patent US20210261685A1",
  "about": "(Alector, published 2021)",
  "binders": {"B1": {"name": "MTK-25 (antibody, human IgG1, V domains shown)", "VH": "EVKLVESEGGLVQPGSSMKLSCTASGFTFSDYYMAWVRQVPEKGLEWVANINYEGSSTYYLGSLKSRFIISRDNAENILYLQMSSLKSEDTATYYCARYYYGSVDYWGQGTTLTVSS", "VL": "DIVMTQSQKFMSTSVGDRVSITCKASQNVRTTVAWYQQKPGQSPKTLIYLASNRHTGVPDRFTGSGSGTDFTLTISNVQSEDLADYFCLQLWNYPWTFGGGTKLEIK"}, "B2": {"name": "MTK-33.14 (antibody, human IgG1, V domains shown)", "VH": "QVQLVQSGAEVKKPGASVKVSCKASGYTFTSYWMHWVRQAPGQGLEWIGVIDPSDNYINYNQKFRGRVTMTRDTSTSTVYMELSSLRSEDTAVYYCAREAGTRGYFDYWGQGTLVTVSS", "VL": "DIQMTQSPSSLSASVGDRVTITCQASQSVSNTVAWYQQKPGKAPKLLIYYASNRYTGVPSRFSGSGSGTDFTFTISSLQPEDIATYYCQQDYRSPFTFGQGTKLEIK"}, "B3": {"name": "MTK-33.15 (antibody, human IgG1, V domains shown)", "VH": "B2 VH with R65Q, G66V", "VL": "B2 VL with Q27R, Y92M"}, "B4": {"name": "MTK-33.16 (antibody, human IgG1, V domains shown)", "VH": "B2 VH with G26W, R65Q", "VL": "B2 VL with Q27R"}, "B5": {"name": "MTK-33.17 (antibody, human IgG1, V domains shown)", "VH": "B2 VH with D52A", "VL": "B2 VL with Q27R, Y92M"}, "B6": {"name": "MTK-33.21 (antibody, human IgG1, V domains shown)", "VH": "B2 VH", "VL": "B2 VL with D17G, Q27R, A51V, Y92M"}, "B7": {"name": "MTK-23 (antibody, human IgG1, V domains shown)", "VH": "QVQLQQSGADLVRPGASVKISCKAFGYTFTNHHINWVKQRPGQGLDWIGNVDPYNDYSTYNQKFKGKATLTVDKSSSTAYMELSSLTSEDSAVYYCARRVYDGFYVDWYFDVWGAGTTVTVSS", "VL": "DIVMTQSHKFMSTPVGDRVSITCKASRDVSTAVAWFHQKPGQSPKLLIYSASYRSTGVPDRFTGSGSGTDFTFTISSVQAEDLAVYYCQQHYSAPLTFGAGTKLELK"}},
  "note": "Numbering of substitutions follows the chain as printed.",
  "data": [
    {"biological_target": "T1, human Axl ECD construct (Full Axl) with linker+His+Avi tag (human, UniProt P30530 26-451)", "T1 construct": "tested as Expi293 supernatant; also called ECD domain of human Axl", "T1 sequence": "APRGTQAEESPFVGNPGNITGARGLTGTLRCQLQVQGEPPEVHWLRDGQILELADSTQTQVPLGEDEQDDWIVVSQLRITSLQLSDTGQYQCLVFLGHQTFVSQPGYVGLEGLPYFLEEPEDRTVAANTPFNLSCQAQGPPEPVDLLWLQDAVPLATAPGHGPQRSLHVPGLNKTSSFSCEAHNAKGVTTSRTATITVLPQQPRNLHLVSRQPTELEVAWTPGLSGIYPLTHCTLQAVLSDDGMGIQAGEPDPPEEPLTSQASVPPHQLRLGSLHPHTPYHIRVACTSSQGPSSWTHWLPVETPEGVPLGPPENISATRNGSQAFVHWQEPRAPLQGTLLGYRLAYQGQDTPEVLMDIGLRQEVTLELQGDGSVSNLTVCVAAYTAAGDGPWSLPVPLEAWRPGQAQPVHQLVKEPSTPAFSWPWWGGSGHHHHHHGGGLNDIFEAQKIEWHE", "assay": "SPR, Carterra LSA, antibody immobilised, construct supernatant injected", "protocol": "Binding of anti-MerTK antibodies of the present disclosure to these domain-swapped chimera or deletion mutants (prepared as described above) was tested by Surface Plasmon Resonance (SPR) using Carterra LSA. Purified anti-MerTK antibodies were immobilized in duplicate on a HC30M chip (Carterra) by amine coupling, following the manufacturer's instructions (described previously). Supernatants containing the constructs were diluted 1:1 with running buffer containing 0.5 mg/mL BSA (HBS-TE, Carterra) and injected over the immobilized antibodies. The surface was regenerated with 10 mM Glycine pH2.0 after each construct injection. Sensorgrams were analyzed using Carterra Epitope software to identify patterns of construct binding. Loss of binding to MerTK constructs with domains deleted or swapped in from Axl and/or gain of binding to Axl constructs with MerTK domains swapped in were evaluated. Data from these studies was used to construct a domain binding map for anti-MerTK antibodies and their binding to various domains of human MerTK.", "values": [
      {"binder": "B1", "binding result": "no binding"}
    ]},
    {"biological_target": "T2, human MerTK extracellular domain (ECD), recombinant (human, UniProt Q12866 21-505)", "T2 construct": "also called huMerTK; not shown: polyHis tag or TEVS/Thrombin/murine IgG2a Fc tag", "T2 sequence": "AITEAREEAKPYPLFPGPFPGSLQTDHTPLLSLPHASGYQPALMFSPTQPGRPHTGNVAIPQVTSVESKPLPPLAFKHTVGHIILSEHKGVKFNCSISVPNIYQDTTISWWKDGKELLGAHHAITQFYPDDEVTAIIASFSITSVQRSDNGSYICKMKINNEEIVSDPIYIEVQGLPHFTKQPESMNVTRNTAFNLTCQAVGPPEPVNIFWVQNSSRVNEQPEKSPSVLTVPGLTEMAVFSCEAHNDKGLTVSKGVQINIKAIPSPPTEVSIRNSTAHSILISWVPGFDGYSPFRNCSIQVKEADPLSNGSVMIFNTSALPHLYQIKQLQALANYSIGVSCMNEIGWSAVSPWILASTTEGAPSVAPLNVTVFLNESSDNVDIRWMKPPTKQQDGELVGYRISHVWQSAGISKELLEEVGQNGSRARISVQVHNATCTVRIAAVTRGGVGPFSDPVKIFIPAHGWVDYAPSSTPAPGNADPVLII", "assay": "SPR, Carterra LSA, antibody immobilised", "protocol": "(§1) Binding kinetics of humanized and affinity-matured anti-MerTK antibodies of the present disclosure to human, murine, and cynomolgus MerTK proteins were evaluated as follows. Briefly, anti-MerTK antibodies were prepared by diluting to 10 μg/ml in 10 mM Acetate, pH 4.25 (Carterra, Salt Lake City, Utah), at 300 μl/well. A HC200M sensor chip (Carterra) was activated using the single channel flow cell with a 7-minute injection of a 1:1:1 mixture of 100 mM MES pH 5.5, 100 mM sulfo-NHS, 400 mM EDC (all reconstituted in MES pH 5.5; 100 μl of each mixed in vial immediately before running assay). After switching to the multi-channel array flow cell, the antibodies were injected over the activated chip in a 96-spot array for 15 minutes. The remaining unconjugated active groups on the chip were then blocked by injecting 1M Ethanolamine pH 8.5 (Carterra) for 7 minutes using the single channel flow cell.\n(§2) Estimates of affinity were generated by injecting each analyte over the entire antibody array using the single channel flow cell. MerTK analytes were diluted to 33.3, 100, and 300 nM in running buffer, and injected in serial from lowest to highest concentration without regeneration. Two buffer blanks were run between each series (one species per series). Data were processed and analyzed using NextGenKIT high-throughput kinetics analysis software (Carterra). In these experiments, the anti-MerTK antibodies were human IgG1 isotype containing the Fc variant LALAPS.\n(§3) The equilibrium dissociation constants (KD) were then calculated from the fitted association and dissociation rate constants (k-on and k-off) for anti-MerTK antibodies of the present disclosure.", "units": {"Kd": "nM"}, "values": [
      {"binder": "B2", "Kd": 30.5},
      {"binder": "B3", "Kd": 4.6},
      {"binder": "B4", "Kd": 10.9},
      {"binder": "B5", "Kd": 20.4},
      {"binder": "B6", "Kd": 0.4}
    ]},
    {"biological_target": "T3, murine MerTK extracellular domain (ECD), recombinant (mouse, UniProt Q60805 19-497)", "T3 construct": "also called moMerTK; mouse MerTK; not shown: polyHis tag or TEVS/Thrombin/murine IgG2a Fc tag", "T3 sequence": "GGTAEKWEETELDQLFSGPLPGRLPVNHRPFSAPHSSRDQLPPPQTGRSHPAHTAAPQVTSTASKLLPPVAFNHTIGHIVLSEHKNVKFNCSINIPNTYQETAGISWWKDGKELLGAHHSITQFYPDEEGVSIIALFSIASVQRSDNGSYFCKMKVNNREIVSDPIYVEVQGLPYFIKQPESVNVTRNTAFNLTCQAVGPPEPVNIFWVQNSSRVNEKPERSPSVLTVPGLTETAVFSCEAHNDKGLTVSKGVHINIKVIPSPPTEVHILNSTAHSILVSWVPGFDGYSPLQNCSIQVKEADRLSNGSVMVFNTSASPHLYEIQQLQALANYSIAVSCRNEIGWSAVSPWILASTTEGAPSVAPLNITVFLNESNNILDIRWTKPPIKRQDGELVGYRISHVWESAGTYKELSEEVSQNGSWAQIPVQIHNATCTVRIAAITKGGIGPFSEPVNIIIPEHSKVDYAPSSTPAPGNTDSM", "assay": "SPR, Carterra LSA, antibody immobilised", "protocol": "as §1, §2, §3", "units": {"Kd": "nM"}, "values": [
      {"binder": "B2", "Kd": 275},
      {"binder": "B3", "Kd": 105},
      {"binder": "B4", "Kd": 225},
      {"binder": "B5", "Kd": 505},
      {"binder": "B6", "Kd": 44}
    ]},
    {"biological_target": "T4, cyno MerTK extracellular domain (ECD), recombinant (cynomolgus monkey, UniProt Q12866 21-505 (human entry))", "T4 construct": "also called cynomolgus MerTK; not shown: polyHis tag or TEVS/Thrombin/murine IgG2a Fc tag", "T4 chain": "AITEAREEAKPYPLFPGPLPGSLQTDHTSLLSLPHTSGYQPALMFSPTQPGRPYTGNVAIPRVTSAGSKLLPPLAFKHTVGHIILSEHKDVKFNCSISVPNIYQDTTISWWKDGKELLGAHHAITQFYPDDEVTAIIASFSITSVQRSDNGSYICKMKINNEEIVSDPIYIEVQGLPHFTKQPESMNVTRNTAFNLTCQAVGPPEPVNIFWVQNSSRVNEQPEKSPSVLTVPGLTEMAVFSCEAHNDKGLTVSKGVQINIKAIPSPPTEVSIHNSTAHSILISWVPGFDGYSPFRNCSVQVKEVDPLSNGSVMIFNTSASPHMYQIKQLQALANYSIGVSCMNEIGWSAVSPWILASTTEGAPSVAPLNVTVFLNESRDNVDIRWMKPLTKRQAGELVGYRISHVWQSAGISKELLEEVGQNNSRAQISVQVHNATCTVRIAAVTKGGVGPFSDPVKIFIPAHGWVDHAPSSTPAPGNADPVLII", "assay": "SPR, Carterra LSA, antibody immobilised", "protocol": "as §1, §2, §3", "units": {"Kd": "nM"}, "values": [
      {"binder": "B2", "Kd": 29},
      {"binder": "B3", "Kd": 4},
      {"binder": "B4", "Kd": 10.1},
      {"binder": "B5", "Kd": 19.9},
      {"binder": "B6", "Kd": 0.3}
    ]},
    {"biological_target": "T5, Recombinant human MerTK human Fc Chimera protein (R&D systems, Cat #391-MR-100) (human, UniProt Q12866 26-499, limits assumed)", "T5 construct": "Bought; also called recombinant human MerTK protein; MerTK-Fc", "T5 sequence": "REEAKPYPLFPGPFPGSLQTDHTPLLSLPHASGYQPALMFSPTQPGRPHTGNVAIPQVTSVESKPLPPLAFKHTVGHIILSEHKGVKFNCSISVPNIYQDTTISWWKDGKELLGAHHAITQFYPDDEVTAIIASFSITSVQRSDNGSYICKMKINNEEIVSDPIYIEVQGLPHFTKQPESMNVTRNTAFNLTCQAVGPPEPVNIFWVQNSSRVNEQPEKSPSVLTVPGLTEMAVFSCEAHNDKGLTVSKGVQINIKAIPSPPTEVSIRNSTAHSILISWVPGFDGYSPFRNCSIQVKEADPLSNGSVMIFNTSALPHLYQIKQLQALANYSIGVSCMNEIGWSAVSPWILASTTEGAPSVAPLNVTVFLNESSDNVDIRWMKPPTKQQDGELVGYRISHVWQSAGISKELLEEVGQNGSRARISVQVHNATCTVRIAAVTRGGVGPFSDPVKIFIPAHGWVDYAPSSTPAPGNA", "assay": "competition ELISA, His-ProS on captured MerTK-Fc", "protocol": "Rabbit anti-human IgG polyclonal antibody (Jackson ImmunoResearch, Cat #309-005-008) was captured to a high-protein binding plate at 2 μg/ml 4° C. overnight. After washing with 0.05% Tween20 in PBS three times, 5% BSA in PBS was added for 1 hour. Recombinant human MerTK human Fc Chimera protein (R&D systems, Cat #391-MR-100) was added at 2 μg/ml for 1 hour and the plates were then washed. Anti-MerTK antibodies were titrated to final concentration range of between 66.6 nM to 4 pM and then 40 μl of serially diluted antibody and 40 μl of His tag-conjugated recombinant Gas6 protein (R&D systems, Cat #885-GSB-050) at 3 μg/ml or His tag-conjugated recombinant ProS protein (R&D systems, Cat #9489-PS-100) at 20 μg/ml. After a further incubation for 1 hour, plates were washed and incubated for 1 hour with HRP-conjugated anti-6×His tag antibody (Abcam, Cat #ab1187). Plates were then washed and an HRP substrate (TMB) was used to develop the plates. After sufficient color change was observed, the reaction was stopped by adding 50 μl 2N H₂SO₄ and the OD was measured using a spectrophotometer (BioTek).\nFrom these experiments, IC50 values [nM] were determined using OD450 values obtained from the dose-response curves analyzed with Prism software. Table 14 and Table 15 show IC50 values determined for anti-MerTK antibody blocking of Gas6 ligand binding and ProS ligand binding to MerTK. […] Dashes indicate lack of significant blocking; “n.a.” indicates data not available.", "units": {"IC50": "nM"}, "values": [
      {"binder": "B7", "IC50": 25.9}
    ]}
  ]
}
